From publication PMC9894557, “The opportunistic pathogen Pseudomonas aeruginosa exploits bacterial biotin synthesis pathway to benefit its infectivity” (PLOS Pathogens, 2023)

Biological target: the molecule itself
Test: SEC; gel filtration on a Superdex 75 column; Streptococcus suis FakB2 (~33 kDa, known monomer) as size control

Protein	binding result
Pseudomonas aeruginosa BioH (PA0502) S66A (enzyme, BioH (PA0502), Pseudomonas aeruginosa PAO1, catalytic triad mutant; Purification is described only for the wild type; also called BioH(S66A); source: E. coli, from pET28a::bioH(S66A), purified) MRDHLILLPGWGLGSAPLEPLRDALHEREPHLNVLIEPLPSLDDAADWLDELDDNLPRDSWLAGWALGGMLAGELAARRGDDCRGLLTLASNPCFRVREDWPNAMPAETFEDFFEAFLLEPHLTRKRFTLLVSQGARDPRTLARQLQVALPQLEREALVAGLQLLGQLDTRAALENFRGPQLHLFAEADALVPLAAAEALLEWLPDVEVSTLAASHGLPLECPDEVAGAILRFLREGDDA	binds
Pseudomonas aeruginosa BioH (PA0502) D189A (enzyme, BioH (PA0502), Pseudomonas aeruginosa PAO1, catalytic triad mutant; Purification is described only for the wild type; also called BioH(D189A); source: E. coli, from pET28a::bioH(D189A), purified) MRDHLILLPGWGLGSAPLEPLRDALHEREPHLNVLIEPLPSLDDAADWLDELDDNLPRDSWLAGWSLGGMLAGELAARRGDDCRGLLTLASNPCFRVREDWPNAMPAETFEDFFEAFLLEPHLTRKRFTLLVSQGARDPRTLARQLQVALPQLEREALVAGLQLLGQLDTRAALENFRGPQLHLFAEAAALVPLAAAEALLEWLPDVEVSTLAASHGLPLECPDEVAGAILRFLREGDDA	binds
